From publication PMC8498191, “Structural and Mechanistic Insights Into Dimethylsulfoxide Formation Through Dimethylsulfide Oxidation” (Frontiers in Microbiology, 2021)
Residue numbers refer to the chain shown, from its start. Names and notes keep the numbering of the source.

T1: Tmm7211 (Candidatus Pelagibacter sp. HTCC7211, UniProt B6BQB2)
T1 construct: gene tmm; full-length synthesized gene (1335 bp, 444 residues, 52 kDa), N-terminal His tag (pET28a), E. coli BL21(DE3); Ni-NTA and Superdex-200
T1 sequence (B6BQB2 1-444): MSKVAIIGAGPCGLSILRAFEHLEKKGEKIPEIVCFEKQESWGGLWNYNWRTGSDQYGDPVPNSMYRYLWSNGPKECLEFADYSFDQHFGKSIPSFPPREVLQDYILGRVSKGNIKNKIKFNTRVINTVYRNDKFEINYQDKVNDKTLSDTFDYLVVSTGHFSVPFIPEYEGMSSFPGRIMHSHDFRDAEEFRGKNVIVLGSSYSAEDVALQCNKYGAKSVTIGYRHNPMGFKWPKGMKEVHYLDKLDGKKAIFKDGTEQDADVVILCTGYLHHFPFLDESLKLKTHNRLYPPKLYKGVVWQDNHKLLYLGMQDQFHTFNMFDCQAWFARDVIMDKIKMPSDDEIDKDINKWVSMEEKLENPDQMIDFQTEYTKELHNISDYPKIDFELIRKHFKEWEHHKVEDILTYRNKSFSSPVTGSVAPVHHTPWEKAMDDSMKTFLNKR

B1: trimethylamine monooxygenase from Pelagibacter sp. HTCC7211 (Tmm_(7211)) (enzyme, UniProt B6BQB2 1-444, looked up)
chain: T1 sequence (B6BQB2 1-444)
notes: trimethylamine monooxygenase (Tmm, EC 1.14.13.148), a bacterial flavin-containing monooxygenase of the SAR11 bacterium Pelagibacter sp; HTCC7211; 1335-bp full-length tmm gene, synthesised; 444 amino acid residues, calculated mass 52 kDa; NADPH (5 mM) was added before crystallisation, and NADP+ and FAD are seen in the structure; Cloned in pET28a; also called WT Tmm_(7211); recombinant Tmm_(7211); …
B2: Tmm7211 (Candidatus Pelagibacter sp. HTCC7211; D314A) (protein)
chain: T1 sequence (B6BQB2 1-444) with D314A
notes: full-length synthesized gene (1335 bp, 444 residues, 52 kDa), N-terminal His tag (pET28a), E. coli BL21(DE3); Ni-NTA and Superdex-200
B3: Tmm7211 (Candidatus Pelagibacter sp. HTCC7211; D314E) (protein)
chain: T1 sequence (B6BQB2 1-444) with D314E
notes: as for B2
B4: Tmm7211 (Candidatus Pelagibacter sp. HTCC7211; N72A) (protein)
chain: T1 sequence (B6BQB2 1-444) with N72A
notes: as for B2
B5: Tmm7211 (Candidatus Pelagibacter sp. HTCC7211; S203A) (protein)
chain: T1 sequence (B6BQB2 1-444) with S203A
notes: as for B2
B6: Tmm7211 (Candidatus Pelagibacter sp. HTCC7211; R226A) (protein)
chain: T1 sequence (B6BQB2 1-444) with R226A
notes: as for B2
B7: Tmm7211 (Candidatus Pelagibacter sp. HTCC7211; H227A) (protein)
chain: T1 sequence (B6BQB2 1-444) with H227A
notes: as for B2
B8: Tmm7211 (Candidatus Pelagibacter sp. HTCC7211; N288A) (protein)
chain: T1 sequence (B6BQB2 1-444) with N288A
notes: as for B2
B9: Tmm7211 (Candidatus Pelagibacter sp. HTCC7211; R409A) (protein)
chain: T1 sequence (B6BQB2 1-444) with R409A
notes: as for B2

Assays:
Tmm7211 [1] = target: T1, Tmm7211; test: NADPH oxidation at […] nm; assay type: biochemical; conditions: read-out: Apparent KM; 0.25 mM NADPH, 1 μM enzyme, 10 mM Tris-HCl pH 7.0, 100 mM NaCl
Tmm7211 [2] = target: T1, Tmm7211; test: X-ray crystal structure, […] Å; assay type: binding
purified protein [3] = substrate: Cn1cc[nH]c1=S; test: purified protein; conditions: 0.25 mM NADPH, 1 μM enzyme, 10 mM Tris-HCl pH 7.0, 100 mM NaCl
purified protein [4] = substrate: CN(C)C; test: purified protein; assay type: biochemical, Candidatus Pelagibacter sp. HTCC7211; conditions: 0.25 mM NADPH, 1 μM enzyme, 10 mM Tris-HCl pH 7.0, 100 mM NaCl; pH 7.0
purified protein [5] = substrate: CSC; test: purified protein; assay type: biochemical, Candidatus Pelagibacter sp. HTCC7211; conditions: 0.25 mM NADPH, 1 μM enzyme, 10 mM Tris-HCl pH 7.0, 100 mM NaCl; pH 7.0
purified protein [6] = substrate: NC(=O)C1=CN([C@@H]2O[C@H](COP(=O)(O)OP(=O)(O)OC[C@H]3O[C@@H](n4cnc5c(N)ncnc54)[C@H](OP(=O)(O)O)[C@@H]3O)[C@@H](O)[C@H]2O)C=CC1; test: purified protein; assay type: biochemical, Candidatus Pelagibacter sp. HTCC7211; conditions: 1 mM DMS, 1.5 μM enzyme
[7] = target: the molecule itself; test: SEC; analytical gel filtration on a calibrated Superose 6 column, 10 mM Tris-HCl (pH 8.0), 100 mM NaCl; apparent mass 95 kDa against 52 kDa calculated for the monomer

| Molecule | Km (purified protein [6]) [µM] | kcat (purified protein [6]) [s⁻¹] | also measured |
| --- | --- | --- | --- |
| CNC [DMA] | – | – | Km (Tmm7211 [1]): 181 ± 23.7 µM |
| Cc1cc2nc3c(=O)[nH]c(=O)nc-3n(C[C@H](O)[C@H](O)[C@H](O)COP(=O)(O)OP(=O)(O)OC[C@H]3O[C@@H](n4cnc5c(N)ncnc54)[C@H](O)[C@@H]3O)c2cc1C [FAD] | – | – | X-ray crystal structure, 1.8 Å (Tmm7211 [2]; FAD bound during expression in E. coli): the NADP^+ and FAD molecules can be clearly observed in the structure |
| NC(=O)c1ccc[n+]([C@@H]2O[C@H](COP(=O)(O)OP(=O)(O)OC[C@H]3O[C@@H](n4cnc5c(N)ncnc54)[C@H](OP(=O)(O)O)[C@@H]3O)[C@@H](O)[C@H]2O)c1 [NADP^+] | – | – | X-ray crystal structure, 1.8 Å (Tmm7211 [2]; crystallised with 5 mM NADPH): the NADP^+ and FAD molecules can be clearly observed in the structure |
| B1 | 12.8 ± 0.4 | 0.075 ± 0.005 | Km (purified protein [3]): 116.2 ± 13.8 µM; kcat (purified protein [3]): 0.0867 s⁻¹; kcat/Km (purified protein [3]): 747 M⁻¹ s⁻¹; Km (purified protein [4]): 139.0 ± 10.7 µM; kcat (purified protein [4]): 0.373 ± 0.0133 s⁻¹; kcat/Km (purified protein [4]): 2690 M⁻¹ s⁻¹; Km (purified protein [5]): 250.5 ± 23.0 µM; kcat (purified protein [5]): 0.075 ± 0.005 s⁻¹; kcat/Km (purified protein [5]): 300 M⁻¹ s⁻¹; stoichiometry N [7]: 2 |
| B2 | 32.0 ± 0.6 | 0.035 ± 0.00167 | – |
| B3 | 9.7 ± 0.5 | 0.0867 ± 0.00333 | – |
| B4 | 34.1 ± 1.0 | 0.0317 ± 0.00333 | – |
| B5 | 134.8 ± 11.1 | 0.0167 ± 0.00167 | – |
| B6 | 101.8 ± 8.6 | 0.015 ± 0.00167 | – |
| B7 | 41.2 ± 2.3 | 0.0417 ± 0.00333 | – |
| B8 | 61.1 ± 4.0 | 0.0217 ± 0.00167 | – |
| B9 | 44.9 ± 5.6 | 0.045 ± 0.00167 | – |
